Measured values as given in publication PMC6842167 (Retrovirology, 2019).

Target: T1, Recombinant human two-domain CD4 (Homo sapiens)
T1 construct: also called 2dCD4; N-terminal two domain fragment of human CD4
Assay: ELISA; decreasing concentrations of 2dCD4 immobilised directly on a 96 well plate; antibodies at 1 µg/ml; anti-human HRP secondary, absorbance at 450 nm
Conditions: both partners purified

B1: ibalizumab (antibody, V domains shown)
VH: QVQLQQSGPEVVKPGASVKMSCKASGYTFTSYVIHWVRQKPGQGLDWIGYINPYNDGTDYDEKFKGKATLTSDTSTSTAYMELSSLRSEDTAVYYCAREKDNYATGAWFAYWGQGTLVTVSS
VL: DIVMTQSPDSLAVSLGERVTMNCKSSQSLLYSTNQKNYLAWYQQKPGQSPKLLIYWASTRESGVPDRFSGSGSGTDFTLTISSVQAEDVAVYYCQQYYSYRTFGGGTKLEIK
notes: also called iMab; parental iMab antibody; source: HEK293T, transiently transfected, purified (Protein-A, SEC); copies: + +
B1: binds.
